In patent US20050003401, “Pfu replication accessory factors and methods of use” (Stratagene, published 2005):

Assays:
[1] = biological target: SSB (single-stranded DNA binding protein) (Escherichia coli, UniProt P0AGE0 P0AGE0:2-178); experiment: EMSA; TE buffer; 95 C 10 min then 72 C 2 min; settings: tags: Stratagene Perfect Match; chain copies: 4
Method: (§1) 50 ng of a 38-mer oligo was incubated with E. coli SSB (lane 1), water (lane 2), or P. furiosus RFA (lanes 3-7) in TE buffer (lanes 1-3), 1×cloned Pfu buffer (lane 4), 50 mM Tris pH 8.5, 25 mM KCl, 2 mM MgCl₂ (lane 5), 50 mM Tris pH 8.5, 25 mM KCl, 5 mM MgCl₂ (lane 6), or 50 mM Tris pH 8.5, 25 mM KCl, 2 mM ZnCl₂ (lane 7). Samples were incubated at 95° C. for 10 minutes, followed by 72° C. for 2 minutes prior to loading on a 4-20% acrylamide gradient gel in 1×TBE buffer. Bands were visualized by SYBR green staining and UV illumination.
(§2) To assess function, P. furiosus RFA was tested for single-stranded DNA binding activity in a gel shift assay (FIG. 18). […] The degree of migration of the oligo is related to the mass of the protein-DNA complex and the formation of protein multimers. E. coli SSB is known to form tetramers, but it is presently unknown whether P. furiosus RFA produces multimers as well.

[2] = biological target: T1, RFA (replication factor A) (Pyrococcus furiosus); experiment: EMSA; partial shift; 95 C 10 min then 72 C 2 min; settings: tags: N-terminal CBP
T1 chain: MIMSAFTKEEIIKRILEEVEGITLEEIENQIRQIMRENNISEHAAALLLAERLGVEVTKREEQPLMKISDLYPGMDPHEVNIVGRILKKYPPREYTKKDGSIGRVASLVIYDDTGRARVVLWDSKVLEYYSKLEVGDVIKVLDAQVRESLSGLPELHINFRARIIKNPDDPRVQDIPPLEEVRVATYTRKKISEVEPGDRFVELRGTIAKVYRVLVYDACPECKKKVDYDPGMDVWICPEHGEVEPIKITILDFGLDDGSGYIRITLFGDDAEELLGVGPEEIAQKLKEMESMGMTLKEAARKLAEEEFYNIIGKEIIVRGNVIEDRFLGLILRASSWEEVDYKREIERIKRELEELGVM
Method: as §1, §2

Sequence of SSB (single-stranded DNA binding protein) (P0AGE0 2-178, one chain of several): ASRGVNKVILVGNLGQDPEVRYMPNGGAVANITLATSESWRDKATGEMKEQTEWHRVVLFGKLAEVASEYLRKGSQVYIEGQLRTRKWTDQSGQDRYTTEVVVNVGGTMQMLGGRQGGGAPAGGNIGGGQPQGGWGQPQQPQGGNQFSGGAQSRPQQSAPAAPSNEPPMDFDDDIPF

B1: 38-mer oligo (ssDNA)
DNA: GGTTTTCCCAGTCACGACGTTGTAAAACGACGGCCAGT
binding result [1]: binds | binding result [2]: binds
